Source: paper PMC4441847 (The Biochemical journal, 2015)

Biological target: Recombinant FEN-1 (pET-FEN-1) (human, UniProt P39748 1-380)
Assay: pull-down

Recombinant FEN-1 (pET-FEN-1), sequence (P39748 whole entry): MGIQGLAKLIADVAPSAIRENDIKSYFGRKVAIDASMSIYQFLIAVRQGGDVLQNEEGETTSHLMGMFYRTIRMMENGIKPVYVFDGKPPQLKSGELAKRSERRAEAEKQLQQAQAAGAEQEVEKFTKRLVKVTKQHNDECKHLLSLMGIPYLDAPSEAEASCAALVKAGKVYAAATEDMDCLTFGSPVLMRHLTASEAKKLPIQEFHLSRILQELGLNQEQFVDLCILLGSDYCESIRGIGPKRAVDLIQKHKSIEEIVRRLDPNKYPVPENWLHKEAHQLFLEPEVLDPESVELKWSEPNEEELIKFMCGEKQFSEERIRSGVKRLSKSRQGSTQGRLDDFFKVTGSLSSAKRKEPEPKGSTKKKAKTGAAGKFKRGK

binding result | Binder
binds | GST-RECQ1 C-terminal domain (residues 592-649) (domain or fragment, human, UniProt P46063 592-649, looked up) KSTQNSFRAESSQTCHSEQGDKKMEEKNSGNFQKKAANMLQQSGSKNTGAKKRKIDDA
binds | GST-RECQ1 RQC domain (residues 418-592) (domain or fragment, human, UniProt P46063 418-592, looked up) YGFGDIFRISSMVVMENVGQQKLYEMVSYCQNISKCRRVLMAQHFDEVWNSEACNKMCDNCCKDSAFERKNITEYCRDLIKILKQAEELNEKLTPLKLIDSWMGKGAAKLRVAGVVAPTLPREDLEKIIAHFLIQQYLKEDYSFTAYATISYLKIGPKANLLNNEAHAITMQVTK
